For one test, the target named is T1, RIG-I (UniProt O95786 1-925).
T1 construct: also called Flag-Rig-I
T1 sequence (looked up): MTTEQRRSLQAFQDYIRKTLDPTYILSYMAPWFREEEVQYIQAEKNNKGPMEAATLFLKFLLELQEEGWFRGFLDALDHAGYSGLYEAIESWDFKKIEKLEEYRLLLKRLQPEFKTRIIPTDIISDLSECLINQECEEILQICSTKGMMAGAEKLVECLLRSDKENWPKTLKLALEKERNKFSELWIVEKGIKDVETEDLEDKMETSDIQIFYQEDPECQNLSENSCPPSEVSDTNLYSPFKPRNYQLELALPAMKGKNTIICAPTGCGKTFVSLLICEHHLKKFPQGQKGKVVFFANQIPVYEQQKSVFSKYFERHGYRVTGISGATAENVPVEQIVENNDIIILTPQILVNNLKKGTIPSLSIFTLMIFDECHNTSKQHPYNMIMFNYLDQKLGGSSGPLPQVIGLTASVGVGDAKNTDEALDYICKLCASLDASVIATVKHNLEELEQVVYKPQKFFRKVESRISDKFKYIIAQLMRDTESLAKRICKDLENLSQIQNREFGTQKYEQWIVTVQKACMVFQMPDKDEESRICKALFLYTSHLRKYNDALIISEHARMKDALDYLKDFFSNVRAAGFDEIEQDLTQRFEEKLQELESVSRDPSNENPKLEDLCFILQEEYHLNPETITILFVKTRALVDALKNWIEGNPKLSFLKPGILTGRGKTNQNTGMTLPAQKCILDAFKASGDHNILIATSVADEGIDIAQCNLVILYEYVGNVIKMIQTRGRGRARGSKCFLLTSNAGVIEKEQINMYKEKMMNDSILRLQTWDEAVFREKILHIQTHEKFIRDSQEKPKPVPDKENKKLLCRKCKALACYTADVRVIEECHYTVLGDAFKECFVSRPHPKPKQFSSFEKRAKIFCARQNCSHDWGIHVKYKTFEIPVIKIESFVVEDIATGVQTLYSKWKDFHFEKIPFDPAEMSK
The test can be described thus: co-IP with anti-GFP, GFP-IRGM and Flag-Rig-I.

For the next test, the target named is T2, Rubicon (UniProt Q92622 1-972, limits assumed).
T2 sequence (looked up): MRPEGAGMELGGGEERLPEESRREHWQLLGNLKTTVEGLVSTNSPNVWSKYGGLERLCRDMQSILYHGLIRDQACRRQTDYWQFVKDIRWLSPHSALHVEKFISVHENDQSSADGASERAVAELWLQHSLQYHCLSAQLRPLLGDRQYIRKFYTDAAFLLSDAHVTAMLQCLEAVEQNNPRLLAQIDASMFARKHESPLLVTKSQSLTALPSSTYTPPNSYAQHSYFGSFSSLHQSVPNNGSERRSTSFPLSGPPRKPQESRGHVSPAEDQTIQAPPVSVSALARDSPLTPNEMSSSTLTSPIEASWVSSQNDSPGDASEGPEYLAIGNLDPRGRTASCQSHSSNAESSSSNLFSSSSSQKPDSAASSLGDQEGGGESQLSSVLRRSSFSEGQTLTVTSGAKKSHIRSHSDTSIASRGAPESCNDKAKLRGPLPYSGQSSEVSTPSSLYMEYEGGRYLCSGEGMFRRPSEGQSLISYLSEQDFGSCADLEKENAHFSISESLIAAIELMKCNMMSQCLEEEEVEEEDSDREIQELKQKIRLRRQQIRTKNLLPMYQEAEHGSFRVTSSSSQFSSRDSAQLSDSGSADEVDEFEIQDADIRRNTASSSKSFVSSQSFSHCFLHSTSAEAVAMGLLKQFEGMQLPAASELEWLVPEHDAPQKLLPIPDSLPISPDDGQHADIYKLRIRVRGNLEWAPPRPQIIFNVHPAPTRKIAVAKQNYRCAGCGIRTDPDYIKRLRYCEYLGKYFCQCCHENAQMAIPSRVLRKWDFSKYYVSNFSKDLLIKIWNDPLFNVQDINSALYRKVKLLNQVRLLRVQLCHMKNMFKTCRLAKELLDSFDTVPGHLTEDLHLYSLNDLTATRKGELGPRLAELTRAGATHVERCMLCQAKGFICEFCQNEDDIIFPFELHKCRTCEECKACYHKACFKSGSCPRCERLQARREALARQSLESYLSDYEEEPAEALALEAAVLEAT
As to the kind of experiment: co-immunoprecipitation, HEK293T cells expressing GFP-IRGM.

B1: IRGM (human IRGM, isoform d) (other, UniProt A1A4Y4-4 1-202, looked up)
chain: MEAMNVEKASADGNLPEVISNIKETLKIVSRTPVNITMAGDSGNGMSTFISALRNTGHEGKASPPTELVKATQRCASYFSSHFSNVVLWDLPGTGSATTTLENYLMEMQFNRYDFIMVASAQFSMNHVMLAKTAEDMGKKFYIVWTKLDMDLSTGALPEVQLLQIRENVLENLQKERLACHEKYLKSTPENSTRPRNINLCS
notes: Stood in cell lysates as GFP-, Flag- or V5-tagged protein or as the endogenous protein, depending on the experiment; Isoform d is said to be used in all experiments; also called GFP-IRGM; GFP-IRGMd
As for B1, the figures for the binding result in the test with RIG-I and in the test with Rubicon were “binds” and “no binding”, respectively.

These data come from patent US20180236024A1 (STC UNM, published 2018).
